Source: US20160145308A1 (SANFORD BURNHAM MEDICAL RESEARCH INSTITUTE, published 2016)
Where no end group is shown, it is not given here. The star is where a group is joined. FITC = O=C1OC2(c3ccc(O)cc3Oc3cc(O)ccc32)c2ccc(NC(=S)*)cc21

Tests used:
[1] = biological target: T1, CNGB3-MYC/His fusion protein (human, UniProt Q9NQW8 1-809); experiment: fluorescence microscopy of HeLa cells transfected with CNGB3-MYC; FITC-z13 in the culture medium
T1 construct: Full-length CNGB3 cDNA in pcDNA3.1/myc-His-B, expressed in HeLa and HEK293T cells; also called recombinant CNGB3; not shown: C-terminal myc-His tag from the pcDNA3.1/myc-His-B vector
T1 sequence: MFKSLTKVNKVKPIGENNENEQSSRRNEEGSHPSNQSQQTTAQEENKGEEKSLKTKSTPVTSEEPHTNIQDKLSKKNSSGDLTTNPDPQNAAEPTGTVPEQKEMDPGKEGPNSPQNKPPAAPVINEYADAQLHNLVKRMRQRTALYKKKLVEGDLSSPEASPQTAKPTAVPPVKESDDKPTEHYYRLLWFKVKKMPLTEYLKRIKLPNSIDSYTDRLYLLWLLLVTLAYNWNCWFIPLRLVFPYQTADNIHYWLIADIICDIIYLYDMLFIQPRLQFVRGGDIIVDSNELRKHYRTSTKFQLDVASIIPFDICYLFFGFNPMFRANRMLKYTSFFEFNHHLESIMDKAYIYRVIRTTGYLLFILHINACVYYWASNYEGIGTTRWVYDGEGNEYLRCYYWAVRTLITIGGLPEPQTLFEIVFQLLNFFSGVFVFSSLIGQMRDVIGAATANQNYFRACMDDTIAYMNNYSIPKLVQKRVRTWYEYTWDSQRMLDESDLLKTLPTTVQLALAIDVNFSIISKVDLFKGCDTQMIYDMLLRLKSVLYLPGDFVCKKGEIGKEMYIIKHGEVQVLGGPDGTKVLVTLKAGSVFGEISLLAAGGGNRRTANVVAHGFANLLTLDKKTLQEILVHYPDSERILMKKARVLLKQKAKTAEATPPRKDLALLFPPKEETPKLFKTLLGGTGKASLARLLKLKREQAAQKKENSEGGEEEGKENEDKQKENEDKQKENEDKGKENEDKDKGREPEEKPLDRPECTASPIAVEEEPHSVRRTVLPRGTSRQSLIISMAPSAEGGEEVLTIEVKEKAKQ
Method: When FITC-z13 was added to culture medium of CNGB3-MYC-expressing HeLa cells, FITC-z13 bound to sites marked by MYC-epitope expression. […] Antibody specificity was validated by immunostaining of CNGB3-Myc expressed in HeLa cells. This antibody strongly stained glandular epithelia of endometriosis in tissue sections.
CNGB3 cDNA was kindly provided by Dr. Hisao Ueyama, Department of Ophthalomology, Shiga University of Medical Science, Japan. cDNA encoding full-length CNGB3 was excised by HindIII and BsrGI and ligated into the HindIII and Asp718I sites of pcDNA3.1/myc-His-B vector (Invitrogen). HeLa cells were transfected with this vector, and expression of CNGB3-MYC/His fusion protein was determined by immunohistochemistry with an anti-MYC antibody and the anti-CNGB3 antibody (clone 3B2) described above. To test binding of z13 peptide to CNGB3, FITC-z13 was added (5 μg/ml) to the medium of HeLa cells transfected by the above-described vector and incubated at 37° C. for 15 min. Cells were washed with PBS, fixed with 4% PFA in PBS, and observed under a fluorescence microscope.

[2] = biological target: T1, CNGB3-MYC/His fusion protein; experiment: fluorescence microscopy of CNGB3-MYC expressing HEK293T cells, 37° C. for 30 min, Alexa 488-conjugated avidin
Method: When dKLAK-z13 was added to culture medium of HEK293T cells transfected by expression vector for CNGB3-MYC, apoptosis was not induced, however. It was realized that this lack of effect could be due to the fact that receptor-bound dKLAK-z13 localizes to the luminal side of endosomes, a prediction supported by the endosome-like pattern of fluorescent z13. To release dKLAK-z13 from the endosomes to the cytoplasm, an endosome-escaping 18-mer peptide […] (SEQ ID NO:38; here abbreviated as HLAH) was devised by replacing lysines in KLAKLAK (SEQ ID NO:39) with histidines, to provide histidine-rich sequences capable of destabilizing endosome membranes at acidic pH (Midoux et al., 2002; Pichon et al., 2001). […] For this experiment, biotin-z13 was bound to CNGB3-MYC expressing HEK293T cells at 37° C. for 30 min with or without HLAH-z13. Cells were stained by Alexa 488-conjugated avidin followed by DAPI nuclear staining.

Binder | binding result [1] | binding result [2]
{FITC}-VRRADNRPG (Synthetic fluorescence-tagged z13 peptide; also called fluorescent FITC-z13; z13 peptide with an N-terminal FITC-tag) [FITC-z13] | binds | –
VRRADNRPG (also: biotinylated (position not given here), also called biotin-z13) [biotinylated z13] | – | binds
